What was measured:
Conditions in all cases: domain or fragment, No outside chemistry for unlabelled SAXS/AUC samples. Limits are not given, convention is residues 186-320 of short isoform A1-A (isoform B insert 252-303 absent). The hexapeptide 259-264 (311-316 in P09651) is taken as deleted because the printed 7.5 mg/mL = 0.598 mM gives about 12.54 kDa, which fits the delta-hexa form plus an assumed N-terminal GS cleavage scar (about 12.53 kDa), modification not given
[1] = biological target: low-complexity domain of hnRNPA1 (A1-LCD); test: AUC; two-step isodesmic model, KD1 (first step), 50 mM NaCl
[2] = biological target: low-complexity domain of hnRNPA1 (A1-LCD); test: AUC; isodesmic model, 50 mM NaCl
[3] = biological target: low-complexity domain of hnRNPA1 (A1-LCD); test: AUC; two-step isodesmic model, KD2 (later steps), 50 mM NaCl

B1: low-complexity domain of hnRNPA1 (A1-LCD) (protein)
chain: MASASSSQRGRSGSGNFGGGRGGGFGGNDNFGRGGNFSGRGGFGGSRGGGGYGGSGDGYNGFGNDGSNFGGGGNYNNQSSNFGPMKGGNFGGRSSGPYGGGGQYFAKPRNQGGYGGSSSSSSYGSGRRF
- Kd [1]: 5.4 mM
- Kd [2]: 3 mM
- Kd [3]: 2.2 mM

From PMC8302766
